The supplement of paper PMC10126150
± gives the standard deviation of the averaged measurements.
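Further: ATP exposure 15 min at 22 °C before imaging.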

What follows are sequences tested on ATP (assay: switch fluorescence ratio, 500 uM ATP over buffer (Cy3 cluster intensity, sum of 5 cycles each) (fold (ratio)); higher = stronger signal-on switching upon ATP binding; sequences stand for … in TCGTCGGCAGCGTCAGATGTGTATAAGAGACAGTTTTTTTTTTTTTTTTTTTTTTTTT…TC). Settings: aptamer strand: ATP DNA aptamer (quencher-CACCTGGGGGAGTATTGCGGAGGAAGG + anchor), 100 nM annealed; ATP concentration: 500 uM.
Summary of the method: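 The fluorescence ratio divides summed target-cycle Cy3 intensity by summed buffer-cycle Cy3 intensity for each cluster and is averaged per switch-domain sequence. Cy3-labelled switching-strand clusters on a modified Illumina MiSeq flow-cell were annealed to 100 nM quencher-labelled ATP aptamer, then imaged in selection buffer and again after 15 min with 500 uM ATP at 22 °C. Five such cycles were run, with NaOH stripping and re-annealing between them, and clusters outside 100-1000 RFU were excluded.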
In the case of GCTTTATAGT, the switch fluorescence ratio is reported as 0.985 ± 0.049.
GCTTTATGCT was tested, and the switch fluorescence ratio was 0.9714 ± 0.0025.
GCTTTATTTA was tested, and the switch fluorescence ratio was 0.992 ± 0.053.
Sequence GCTTTCTCGT has a switch fluorescence ratio of 1.03 ± 0.029.
In the case of GCTTTGAATG, the switch fluorescence ratio is reported as 1.011 ± 0.005.
In the case of GCTTTGGATA, the switch fluorescence ratio is reported as 1.04 ± 0.055.
With GCTTTGGCTA the switch fluorescence ratio was 1.02 ± 0.036.
For GCTTTGGGCA, the switch fluorescence ratio was 0.9992 ± 0.0067.
For GCTTTGTGTA, the switch fluorescence ratio was 1.01 ± 0.049.
Sequence GCTTTTACGG has a switch fluorescence ratio of 1.07 ± 0.016.
GCTTTTGGGG showed a switch fluorescence ratio of 1.03 ± 0.087.
GCTTTTGGGT showed a switch fluorescence ratio of 1 ± 0.025.
In the case of GCTTTTGTAC, the switch fluorescence ratio is reported as 1.05 ± 0.05.
Sequence GCTTTTTAGG has a switch fluorescence ratio of 0.964 ± 0.024.
GCTTTTTTTG was tested, and the switch fluorescence ratio was 1.017 ± 0.0079.
For GGAAAAAATA, the switch fluorescence ratio was 1.001 ± 0.0072.
Work on GGAAAATCAA yielded a switch fluorescence ratio of 0.9812 ± 0.0078.
GGAAAATTAA showed a switch fluorescence ratio of 1 ± 0.033.
GGAAACGGGG showed a switch fluorescence ratio of 1.001 ± 0.0064.
Sequence GGAAAGAACA has a switch fluorescence ratio of 0.9817 ± 0.0079.
GGAAAGAGTT showed a switch fluorescence ratio of 1.07 ± 0.056.
GGAAAGATAG gave a switch fluorescence ratio of 1.022 ± 0.0046.
GGAAATAAGG showed a switch fluorescence ratio of 1.01 ± 0.033.
GGAAATAGTG showed a switch fluorescence ratio of 0.966 ± 0.044.
GGAAATCACA showed a switch fluorescence ratio of 1.01 ± 0.029.
In the case of GGAAATGACT, the switch fluorescence ratio is reported as 1.01 ± 0.021.
Work on GGAAATGGGG yielded a switch fluorescence ratio of 0.987 ± 0.11.
Work on GGAAATTTTT yielded a switch fluorescence ratio of 0.973 ± 0.019.
Work on GGAACACACG yielded a switch fluorescence ratio of 1.32 ± 0.039.
Sequence GGAACATAG has a switch fluorescence ratio of 0.9987 ± 0.0023.
GGAACCATAT was tested, and the switch fluorescence ratio was 0.997 ± 0.013.
In the case of GGAACCTCTG, the switch fluorescence ratio is reported as 1.012 ± 0.0037.
GGAACGTAGG showed a switch fluorescence ratio of 1.016 ± 0.0083.
GGAACGTTCT showed a switch fluorescence ratio of 0.995 ± 0.046.
Work on GGAACGTTGG yielded a switch fluorescence ratio of 0.973 ± 0.045.
Sequence GGAAGATTTT has a switch fluorescence ratio of 0.989 ± 0.058.
For GGAAGCGCTC, the switch fluorescence ratio was 1 ± 0.02.
In the case of GGAAGGAGTC, the switch fluorescence ratio is reported as 0.991 ± 0.019.
Sequence GGAAGGGGCC has a switch fluorescence ratio of 1.03 ± 0.086.
GGAAGGGGGC gave a switch fluorescence ratio of 0.9707 ± 0.0066.
For GGAAGGGGGT, the switch fluorescence ratio was 1.01 ± 0.12.
GGAAGGGGTA was tested, and the switch fluorescence ratio was 1.01 ± 0.048.
GGAAGGGTAT showed a switch fluorescence ratio of 1 ± 0.03.
For GGAAGTCCGG, the switch fluorescence ratio was 1.03 ± 0.022.
GGAATAGTTT was tested, and the switch fluorescence ratio was 1.03 ± 0.047.
Work on GGAATCATAG yielded a switch fluorescence ratio of 1.06 ± 0.07.
Sequence GGAATCGGTC has a switch fluorescence ratio of 1 ± 0.051.
GGAATCTGGG showed a switch fluorescence ratio of 0.983 ± 0.05.
For GGAATCTGTA, the switch fluorescence ratio was 0.949 ± 0.022.
GGAATGCGCA was tested, and the switch fluorescence ratio was 1.028 ± 0.0068.
GGAATGGAAC showed a switch fluorescence ratio of 1.01 ± 0.024.
Work on GGAATGTTTT yielded a switch fluorescence ratio of 0.994 ± 0.023.
In the case of GGAATTACTT, the switch fluorescence ratio is reported as 0.987 ± 0.031.
GGAATTCGGG showed a switch fluorescence ratio of 1.01 ± 0.025.
Sequence GGAATTGTTT has a switch fluorescence ratio of 0.974 ± 0.048.
Sequence GGACAAGCGT has a switch fluorescence ratio of 0.987 ± 0.021.
With GGACACGATT the switch fluorescence ratio was 0.986 ± 0.051.
With GGACAGGGGA the switch fluorescence ratio was 1.87 ± 1.2.
With GGACATAATT the switch fluorescence ratio was 1.01 ± 0.029.
For GGACCAAACG, the switch fluorescence ratio was 1.05 ± 0.024.
Sequence GGACCGGGAC has a switch fluorescence ratio of 1.12 ± 0.11.
Work on GGACGCTGTG yielded a switch fluorescence ratio of 0.986 ± 0.043.
GGACGGCGGG gave a switch fluorescence ratio of 1 ± 0.034.
With GGACGGGATT the switch fluorescence ratio was 1.02 ± 0.068.
GGACGGTCGG showed a switch fluorescence ratio of 1.01 ± 0.052.
With GGACGTCGGA the switch fluorescence ratio was 1.05 ± 0.12.
Work on GGACGTGGGA yielded a switch fluorescence ratio of 0.9944 ± 0.0036.
With GGACTAAAAT the switch fluorescence ratio was 1.08 ± 0.13.
GGACTAGGAA showed a switch fluorescence ratio of 1.01 ± 0.026.
GGACTCTGCG was tested, and the switch fluorescence ratio was 1 ± 0.028.
With GGACTGGCTA the switch fluorescence ratio was 1.02 ± 0.035.
In the case of GGACTGGGCT, the switch fluorescence ratio is reported as 0.9806 ± 0.0081.
For GGACTTATGG, the switch fluorescence ratio was 0.9851 ± 0.0091.
Sequence GGACTTGGGC has a switch fluorescence ratio of 0.986 ± 0.036.
For GGACTTGGGT, the switch fluorescence ratio was 0.9702 ± 0.0082.
GGAGAAAATG gave a switch fluorescence ratio of 1.0023 ± 0.00074.
Sequence GGAGAAATGT has a switch fluorescence ratio of 0.998 ± 0.011.
GGAGAAGAGT gave a switch fluorescence ratio of 1.04 ± 0.015.
GGAGAAGCGT gave a switch fluorescence ratio of 1.04 ± 0.031.
GGAGACAGTT was tested, and the switch fluorescence ratio was 0.971 ± 0.024.
With GGAGACGGGG the switch fluorescence ratio was 0.989 ± 0.011.
With GGAGAGGCAG the switch fluorescence ratio was 0.975 ± 0.026.
With GGAGAGGGCA the switch fluorescence ratio was 1.016 ± 0.0077.
Sequence GGAGATATCT has a switch fluorescence ratio of 1.11 ± 0.0069.
GGAGATGTGG showed a switch fluorescence ratio of 0.989 ± 0.011.
Sequence GGAGCAGTTT has a switch fluorescence ratio of 1.12 ± 0.019.
In the case of GGAGCATTTT, the switch fluorescence ratio is reported as 1.78 ± 0.88.
Work on GGAGCCGGGG yielded a switch fluorescence ratio of 1 ± 0.022.
For GGAGCTTTGT, the switch fluorescence ratio was 0.98 ± 0.015.
Sequence GGAGGAAGG has a switch fluorescence ratio of 1.02 ± 0.019.
With GGAGGAATTT the switch fluorescence ratio was 1.01 ± 0.016.
Work on GGAGGACGGG yielded a switch fluorescence ratio of 1 ± 0.027.
Sequence GGAGGATTGG has a switch fluorescence ratio of 0.958 ± 0.017.
In the case of GGAGGCAAGG, the switch fluorescence ratio is reported as 1.1 ± 0.054.
Work on GGAGGCAGGG yielded a switch fluorescence ratio of 0.9965 ± 0.0096.
Sequence GGAGGCCTCG has a switch fluorescence ratio of 0.982 ± 0.018.
Work on GGAGGCGGGA yielded a switch fluorescence ratio of 1.02 ± 0.045.
Work on GGAGGCGGGC yielded a switch fluorescence ratio of 0.963 ± 0.12.
GGAGGGAGGA gave a switch fluorescence ratio of 1.25 ± 0.3.
Sequence GGAGGGATAG has a switch fluorescence ratio of 1.26 ± 0.029.
